The Immune Epitope Database (IEDB)
Values belong to the sequence of their own block, whether it stands above or below them.

Experiments:
HLA-A*01:01 [1] = assay: IEDB peptide-MHC binding, purified MHC/direct/fluorescence; filed as Kd, often an IC50 or EC50 that approximates it; ≥ and ≤ were set here for values at or beyond the usual limits of such assays
HLA-A*02:01 [2] = assay: as above
HLA-A*03:01 [3] = assay: as above
HLA-A*31:01 = assay: as above
HLA-A*68:02 = assay: as above
HLA-A*69:01 = assay: as above
HLA-B*07:02 = assay: as above
HLA-B*08:01 = assay: as above
HLA-B*15:01 [4] = assay: as above
HLA-B*15:17 = assay: as above
HLA-B*18:01 [5] = assay: as above; conditions: source organism: Campylobacter jejuni RM1221
HLA-B*27:05 = assay: as above
HLA-B*48:01 = assay: as above; conditions: source organism: Campylobacter jejuni RM1221
HLA-B*57:01 = assay: as above
HLA-B*58:01 = assay: as above
HLA-B*73:01 = assay: as above; conditions: source organism: Campylobacter jejuni RM1221
HLA-A*11:01 [6] = assay: IEDB peptide-MHC binding, purified MHC/competitive/fluorescence; filed as Kd, often an IC50 or EC50 that approximates it; ≥ and ≤ were set here for values at or beyond the usual limits of such assays; conditions: source organism: Campylobacter jejuni subsp. jejuni NCTC 11168 = ATCC 700819
HLA-B*15:02 = assay: IEDB peptide-MHC binding, purified MHC/direct/fluorescence; filed as Kd, often an IC50 or EC50 that approximates it; ≥ and ≤ were set here for values at or beyond the usual limits of such assays
HLA-B*46:01 = assay: as above
HLA-A*11:01 [7] = assay: as above
HLA-A*23:01 = assay: as above; conditions: source organism: Mammarenavirus lassaense
HLA-A*24:02 [8] = assay: as above; conditions: source organism: Mammarenavirus lassaense
HLA-A*24:03 = assay: as above; conditions: source organism: Mammarenavirus lassaense
HLA-A*26:01 = assay: as above
HLA-A*26:02 = assay: as above; conditions: source organism: Mammarenavirus lassaense
HLA-B*08:03 = assay: as above; conditions: source organism: Mammarenavirus lassaense
HLA-A*02:06 = assay: IEDB peptide-MHC binding, purified MHC/competitive/fluorescence; filed as Kd, often an IC50 or EC50 that approximates it; ≥ and ≤ were set here for values at or beyond the usual limits of such assays; conditions: source organism: Mammarenavirus lassaense
HLA-B*18:01 [9] = assay: as above; conditions: source organism: Mammarenavirus lassaense
HLA-A*01:01 [10] = assay: IEDB peptide-MHC binding, purified MHC/competitive/fluorescence; ≥ and ≤ were set here for values at or beyond the usual limits of such assays
HLA-A*02:01 [11] = assay: as above
HLA-B*35:01 = assay: IEDB peptide-MHC binding, purified MHC/direct/fluorescence; filed as Kd, often an IC50 or EC50 that approximates it; ≥ and ≤ were set here for values at or beyond the usual limits of such assays; conditions: source organism: Burkholderia mallei ATCC 23344
HLA-A*02:01 [12] = assay: IEDB peptide-MHC binding, cellular MHC/competitive/fluorescence; ≥ and ≤ were set here for values at or beyond the usual limits of such assays
HLA-A*03:01 [13] = assay: IEDB peptide-MHC binding, purified MHC/competitive/fluorescence; ≥ and ≤ were set here for values at or beyond the usual limits of such assays; conditions: source organism: Zaire ebolavirus
HLA-A*11:01 [14] = assay: as above; conditions: source organism: Zaire ebolavirus
HLA-A*24:02 [15] = assay: as above; conditions: source organism: Zaire ebolavirus
HLA-B*15:01 [16] = assay: as above; conditions: source organism: Zaire ebolavirus
HLA-B*40:01 = assay: IEDB peptide-MHC binding, purified MHC/direct/fluorescence; filed as Kd, often an IC50 or EC50 that approximates it; ≥ and ≤ were set here for values at or beyond the usual limits of such assays; conditions: source organism: Vibrio parahaemolyticus
HLA-B*44:02 = assay: as above; conditions: source organism: Vibrio parahaemolyticus
HLA-A*80:01 = assay: as above; conditions: source organism: Francisella tularensis subsp. holarctica LVS
HLA-C*08:02 = assay: as above; conditions: source organism: Francisella tularensis subsp. tularensis FSC198
HLA-B*15:42 = assay: IEDB peptide-MHC binding, purified MHC/competitive/fluorescence; filed as Kd, often an IC50 or EC50 that approximates it; ≥ and ≤ were set here for values at or beyond the usual limits of such assays; conditions: source organism: Francisella tularensis subsp. tularensis FSC198
HLA-B*45:06 = assay: as above; conditions: source organism: Francisella tularensis subsp. tularensis FSC198
HLA-B*83:01 = assay: as above; conditions: source organism: Francisella tularensis subsp. tularensis FSC198
HLA-C*04:01 = assay: as above; conditions: source organism: Francisella tularensis subsp. tularensis FSC198
HLA-C*14:02 = assay: as above; conditions: source organism: Francisella tularensis subsp. tularensis FSC198
[17] = source organism: Campylobacter jejuni RM1221
[18] = source organism: Orthohantavirus hantanense
[19] = source organism: Mammarenavirus lassaense
[20] = source organism: Burkholderia mallei ATCC 23344
[21] = source organism: Burkholderia mallei
[22] = source organism: Zaire ebolavirus
[23] = source organism: Vibrio parahaemolyticus

Sequence: AKYEICLEK
- Kd (HLA-A*01:01 [1]; [17]): ≥ 20 µM
- Kd (HLA-A*02:01 [2]; [17]): ≥ 20 µM
- Kd (HLA-A*03:01 [3]; [17]): ≥ 20 µM
- Kd (HLA-A*31:01; [17]): ≥ 20 µM
- Kd (HLA-A*68:02; [17]): ≥ 20 µM
- Kd (HLA-A*69:01; [17]): ≥ 20 µM
- Kd (HLA-B*07:02; [17]): ≥ 20 µM
- Kd (HLA-B*08:01; source organism: Campylobacter jejuni subsp. jejuni 81-176): ≥ 20 µM
- Kd (HLA-B*15:01 [4]; [17]): ≥ 20 µM
- Kd (HLA-B*15:17; [17]): ≥ 20 µM
- Kd (HLA-B*18:01 [5]): ≥ 20 µM
- Kd (HLA-B*27:05; [17]): ≥ 20 µM
- Kd (HLA-B*48:01): ≥ 20 µM
- Kd (HLA-B*57:01; [17]): ≥ 20 µM
- Kd (HLA-B*58:01; [17]): ≥ 20 µM
- Kd (HLA-B*73:01): ≥ 20 µM
- Kd (HLA-A*11:01 [6]): ≥ 20 µM

Sequence: FQHERLGQF
- Kd (HLA-B*15:01 [4]; [18]): 0.0204 µM
- Kd (HLA-B*15:02; source organism: Hantaan virus Q32): 0.029 µM
- Kd (HLA-B*46:01; [18]): 0.783 µM

Sequence: GYAWIDFDI
- Kd (HLA-A*01:01 [1]; [19]): ≥ 20 µM
- Kd (HLA-A*02:01 [2]; [19]): ≥ 20 µM
- Kd (HLA-A*11:01 [7]; [19]): ≥ 20 µM
- Kd (HLA-A*23:01): 0.0039 µM
- Kd (HLA-A*24:02 [8]): 0.0037 µM
- Kd (HLA-A*24:03): 0.0034 µM
- Kd (HLA-A*26:01; [19]): ≥ 20 µM
- Kd (HLA-A*26:02): ≥ 20 µM
- Kd (HLA-A*31:01; [19]): ≥ 20 µM
- Kd (HLA-A*68:02; [19]): ≥ 20 µM
- Kd (HLA-B*07:02; [19]): ≥ 20 µM
- Kd (HLA-B*08:01; [19]): ≥ 20 µM
- Kd (HLA-B*08:03): ≥ 20 µM
- Kd (HLA-B*15:01 [4]; [19]): ≥ 20 µM
- Kd (HLA-B*15:17; [19]): ≥ 20 µM
- Kd (HLA-B*57:01; [19]): ≥ 20 µM
- Kd (HLA-B*58:01; [19]): ≥ 20 µM
- Kd (HLA-A*02:06): ≥ 20 µM
- Kd (HLA-B*18:01 [9]): 0.408 µM

Sequence: KIDSMFLMT
- IC50 (HLA-A*01:01 [10]; source organism: Variola virus): ≥ 104 µM
- IC50 (HLA-A*02:01 [11]; source organism: Variola virus): 0.565 µM

Sequence: MMYASWGVH
- Kd (HLA-B*07:02; [20]): ≥ 20 µM
- Kd (HLA-B*15:01 [4]; [21]): 0.0082 µM
- Kd (HLA-B*15:02; [20]): 0.003 µM
- Kd (HLA-B*35:01): 2.68 µM
- Kd (HLA-B*46:01; [21]): 3.76 µM

- IC50 (HLA-A*02:01 [12]; source organism: Homo sapiens): 15 µM
Sequence: SLLDKIIGA

Sequence: SLPKTSGHY
- IC50 (HLA-A*01:01 [10]; [22]): 37.8 µM
- IC50 (HLA-A*02:01 [11]; [22]): ≥ 368 µM
- IC50 (HLA-A*03:01 [13]): ≥ 91.7 µM
- IC50 (HLA-A*11:01 [14]): ≥ 105 µM
- IC50 (HLA-A*24:02 [15]): 47.5 µM
- IC50 (HLA-B*15:01 [16]): 4.02 µM

Sequence: VQGYERIMY
- Kd (HLA-A*01:01 [1]; [23]): ≥ 20 µM
- Kd (HLA-A*02:01 [2]; [23]): ≥ 20 µM
- Kd (HLA-A*03:01 [3]; [23]): ≥ 20 µM
- Kd (HLA-A*11:01 [7]; [23]): ≥ 20 µM
- Kd (HLA-A*26:01; [23]): ≥ 20 µM
- Kd (HLA-A*31:01; [23]): ≥ 20 µM
- Kd (HLA-A*69:01; [23]): ≥ 20 µM
- Kd (HLA-B*07:02; [23]): ≥ 20 µM
- Kd (HLA-B*08:01; [23]): ≥ 20 µM
- Kd (HLA-B*15:01 [4]; [23]): 0.271 µM
- Kd (HLA-B*15:02; [23]): ≥ 20 µM
- Kd (HLA-B*27:05; [23]): ≥ 20 µM
- Kd (HLA-B*40:01): ≥ 20 µM
- Kd (HLA-B*44:02): ≥ 20 µM
- Kd (HLA-B*46:01; [23]): ≥ 20 µM
- Kd (HLA-B*58:01; [23]): ≥ 20 µM

Sequence: YMDDLYVGSD
- IC50 (HLA-A*02:01 [12]; source organism: Human immunodeficiency virus 1): 8 µM

Sequence: YTDKIAMSY
- Kd (HLA-A*01:01 [1]; source organism: Francisella tularensis subsp. holarctica LVS): ≤ 0.001 µM
- Kd (HLA-A*80:01): 0.0005 µM
- Kd (HLA-C*08:02): 0.651 µM
- Kd (HLA-B*15:42): ≥ 5 µM
- Kd (HLA-B*45:06): ≥ 5 µM
- Kd (HLA-B*83:01): ≥ 5 µM
- Kd (HLA-C*04:01): ≥ 5 µM
- Kd (HLA-C*14:02): 0.0684 µM
